# Measurements from patent US20220259327A1 (published 2022).
# T1: cyCD19 ECD (cynomolgus, UniProt A0A2K5W8L9 20-292)
# T1 construct: extracellular domain; also called cynomolgus CD19 extracellular domain
# T1 sequence: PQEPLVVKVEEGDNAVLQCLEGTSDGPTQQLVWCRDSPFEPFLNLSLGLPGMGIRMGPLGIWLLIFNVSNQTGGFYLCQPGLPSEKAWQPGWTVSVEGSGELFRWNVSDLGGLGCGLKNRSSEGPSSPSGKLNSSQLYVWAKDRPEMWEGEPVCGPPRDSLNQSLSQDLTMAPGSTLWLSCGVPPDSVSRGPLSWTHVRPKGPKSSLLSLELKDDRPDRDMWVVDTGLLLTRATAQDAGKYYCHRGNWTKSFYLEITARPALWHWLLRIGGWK
# B1: wild-type humanized anti-human CD19 antibody (var.0) (antibody, V domains shown)
# VH: QVQLVQSGAEVKKPGASVKVSCKASGYTFTDYIMHWVRQAPGQGLEWMGYINPYNDGSKYTEKFNGKATMTSDTSISTAYMELSRLRSDDTAVYYCARGTYYYGSALFDYWGQGTTVTVSS
# VL: DIVMTQTPLSLSVTPGQPASISCKSSQSLENSNGNTYLNWYLQKPGQSPQLLIYRVSKRFSGVPDRFSGSGSGTDFTLKISRVEAEDVGVYYCLQLTHVPYTFGQGTKLEIK
# B2: humanized anti-human CD19 antibody var.9 (S27eP/N28S) (antibody, V domains shown)
# VH: QVQLVQSGAEVKKPGASVKVSCKASGYTFTDYIMHWVRQAPGQGLEWMGYINPYNDGSKYTEKFQGRVTMTSDTSISTAYMELSRLRSDDTAVYYCARGTYYYGSALFDYWGQGTTVTVSS
# VL: DIVMTQTPLSLSVTPGQPASISCKSSQSLENPSGNTYLNWYLQKPGQSPQLLIYRVSKRFSGVPDRFSGSGSGTDFTLKISRVEAEDVGVYYCLQLTHVPYTFGQGTKLEIK
# B3: humanized anti-human CD19 antibody var.5 (S27eP), named clone 8B8-018 (antibody, V domains shown)
# VH: QVQLVQSGAEVKKPGASVKVSCKASGYTFTDYIMHWVRQAPGQGLEWMGYINPYNDGSKYTEKFQGRVTMTSDTSISTAYMELSRLRSDDTAVYYCARGTYYYGSALFDYWGQGTTVTVSS
# VL: DIVMTQTPLSLSVTPGQPASISCKSSQSLENPNGNTYLNWYLQKPGQSPQLLIYRVSKRFSGVPDRFSGSGSGTDFTLKISRVEAEDVGVYYCLQLTHVPYTFGQGTKLEIK
# notes: also called variant 5
# Biological target: T1, cyCD19 ECD
# Assay: binding to cyCD19 ECD, method not stated
row,Binder,EC50 [µg/mL]
1,B1,0.313
2,B2,0.435
3,B3,0.255
